This passage reports stoichiometry N results from article PMC7790435.

The experiment deals with Thermotoga maritima CheA, full-length (Thermotoga maritima) (UniProt Q56310). Nature of the experiment: cross-linking + SEC-MALS.

What is called stoichiometry N is the number of molecules, sites or subunits per partner or assembly. Consider “Thermotoga maritima CheA, full-length (from UniProt Q56310 1-671) (enzyme)”, for which the stoichiometry N was 2.

B1: Thermotoga maritima CheW (natural protein)
chain: KEFEVLSFEIDEQALAFDVDNIEMVIEKSDITPVPKSRHFVEGVINLRGRIIPVVNLAKILGISFDEQKMKSIIVARTKDVEVGFLVDRVLGVLRITENQLDLTNVSDKFGKKSKGLVKTDGRLIIYLDIDKIIEEITV
B1: the stoichiometry N is 2.
